The supplement of paper PMC7125110
± gives the standard error. For some assays here: Variants at the floor of the assay were thinned out.

B1: glmS ribozyme (parent)
chain: AUAAAAGCGCCAGAACUACAGAAAUGUAGUUGACGAGGAGGAGGUUUAUCGAAUUUUCGGCGGAUGCCUCCAAA

Legend:
Conditions in all cases: with glucosamine-6-phosphate
glucosamine-6-phosphate [1] = variants of: B1; experiment: kcat; higher = faster cleavage; RNA array
How it was run: (§1)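 Tiles of sequenced MiSeq chips were imaged over ~14 h at 37 °C. On them, barcoded ribozyme variants had been transcribed in situ by E. coli RNA polymerase and were tracked via a hybridised Cy3 probe while glucosamine-6-phosphate (40 μM to 10 mM) in HEPES/KCl/Mg(OAc)2 buffer flowed in. Per-tile medians, normalised to baseline and to non-cleaving reference variants, were fit to one- or two-exponential decays for kobs, and weighted Michaelis–Menten fits gave kcat and KM.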

glucosamine-6-phosphate [2] = variants of: B1; experiment: KM; higher = weaker cofactor use; RNA array
How it was run: as §1

glucosamine-6-phosphate [3] = variants of: B1; experiment: self-cleavage kobs at 160 uM GlcN6P; higher = faster cleavage; RNA array
How it was run: as §1

glucosamine-6-phosphate [4] = variants of: B1; experiment: self-cleavage kobs at 640 uM GlcN6P; higher = faster cleavage; RNA array
How it was run: as §1

glucosamine-6-phosphate [5] = variants of: B1; experiment: self-cleavage kobs at 2500 uM GlcN6P; higher = faster cleavage; RNA array
How it was run: as §1

glucosamine-6-phosphate [6] = variants of: B1; experiment: self-cleavage kobs at 10000 uM GlcN6P; higher = faster cleavage; RNA array
How it was run: as §1

glucosamine-6-phosphate [7] = variants of: B1; experiment: self-cleavage kobs at 40 uM GlcN6P; higher = faster cleavage; RNA array
How it was run: as §1

Variant | kcat (glucosamine-6-phosphate [1]) [s⁻¹] | KM (glucosamine-6-phosphate [2]) [µM] | self-cleavage kobs at 160 uM GlcN6P (glucosamine-6-phosphate [3]) [s⁻¹] | self-cleavage kobs at 640 uM GlcN6P (glucosamine-6-phosphate [4]) [s⁻¹] | self-cleavage kobs at 2500 uM GlcN6P (glucosamine-6-phosphate [5]) [s⁻¹] | self-cleavage kobs at 10000 uM GlcN6P (glucosamine-6-phosphate [6]) [s⁻¹] | self-cleavage kobs at 40 uM GlcN6P (glucosamine-6-phosphate [7]) [s⁻¹]
AUAAACGCGCCAGAACUACAGAAAUGUAGUUGACGAGGAGGAGGUUUAUCGAAUUUUCGGCGGAAGCCUCCAAA [A6C U65A] | 1.38e-05 ± 2.5e-07 | 3180 ± 190 |  |  |  |  | 
AUAAAGGCGCCAGAACUACAGAAAUGUAGUUGACGACGAGGAGGUUUAUCGAAUUUUCGGCGGAUGCCUCCAAA [A6G G37C] | < 1e-05 |  | < 1e-05 |  |  |  | 
AUAAAUGCGCCAGGACUACAGAAAUGUAGUUGACGAGGAGGAGGUUUAUCGAAUUUUCGGCGGAUGCCUCCAAA [A6U A14G] | 0.000657 ± 7.8e-05 | 2280 ± 480 | 4.93e-05 ± 2.3e-05 | 0.000135 ± 2.3e-05 | 0.000414 ± 8.3e-05 | 0.000513 ± 8.4e-05 | 
AUAAAGGCGCCAGACCUACAGAAAUGUAGUUGACGAGGAGGAGGUUUAUCGAAUUUUCGGCGGAUGCCUCCAAA [A6G A15C] | 7.64e-05 ± 3.5e-06 | 1700 ± 240 |  |  | 4.69e-05 ± 9.3e-06 | 6.45e-05 ± 1.1e-05 | < 1e-05
AUAAACGCGCCAGAACUACAGAAAUGUAAUUGACGAGGAGGAGGUUUAUCGAAUUUGCGGCGGAUGCCGCCAAA [A6C G29A U57G U69G] | 3.11e-05 ± 1.2e-05 |  |  |  |  |  | 
AUAAACGCGCCAGAACUACAGAAAUGUAGUUGACGAGGAGGAGGAUUAUCGAAUUUUCGGCGGAUGCCUCCAAA [A6C U45A] | 0.000229 ± 1.7e-05 | 3720 ± 750 |  | 3.95e-05 ± 1.9e-05 | 8.34e-05 ± 2.8e-05 | 0.000168 ± 2.1e-05 | < 1e-05
AUAAACGCGCCCGAACUACAGAAAUGUAGUUGACGAGGAGGAGGUUUAUCGAAUUUGCGGCGGAUGCCUCCAAA [A6C A12C U57G] | 1.28e-05 ± 2.4e-06 |  |  |  |  | < 1e-05 | 
AUAAAGGCGCCAGAACUACAGAAAUGUAGUUGACGAGGAGGAGGUUUAUCGAAUUUUCGGCGGAUGCCUACAAA [A6G C70A] | < 1e-05 |  |  |  |  | < 1e-05 | < 1e-05
AUAAACGCGCCAGAACUACAGAAAUGUAGUUGACGAGGAGGAGGUUUAUCGAAUUUUCGGCGGAUGCCUCUAAA [A6C C71U] | 9.59e-05 ± 6.3e-06 | 1150 ± 280 |  | 2.89e-05 ± 1.2e-05 | 7.07e-05 ± 9.3e-06 | 8.35e-05 ± 9.7e-06 | 
AUAAACGUGCCAGAACUACAGAAAUGUAGUUGACCAGGAGGAGGUUUAUCGAAUUUUGGGCGGAUGCCUCCAAA [A6C C8U G35C C58G] | < 1e-05 |  |  | < 1e-05 |  | < 1e-05 | 
AUAAACGCGCCAGAACUACAGAAAUGUAGUUGACGAGGAGGAGGUUUAUCGAAUUUUCAGCGGAUGCCUCCAAA [A6C G59A] | < 1e-05 |  |  |  |  | < 1e-05 | < 1e-05
AUAAACGCGCCAGAACUACAGAAAUGUAAUUGACGAGGAGGAGGUUUAUCGAAUUUUCGGCGGAUGCCUCCAAA [A6C G29A] | < 1e-05 |  |  |  |  |  | < 1e-05
AUAAACGCGCCAGAACUACAGAAAUGUAGUUGACGAGGAGGAGGUUUAUCGAAUUUUCGGAGGAUGCCUCCAAA [A6C C61A] | < 1e-05 |  |  |  |  | < 1e-05 | < 1e-05
AUAAACGCGCCAGAACUACAGAAAUGUAGUUGACGAGGAGGAGGUUUAUCGAAUUUUCGGCGGAUACCUCCAAA [A6C G66A] | 8.29e-05 ± 2.9e-06 | 3320 ± 320 |  |  | 3.57e-05 ± 1.3e-05 | 6.22e-05 ± 1.2e-05 | 
AUAAACGCGCCAGAACUACAGAAAUGUAGUUGACGAGGAGGAGGUUUAUCGAAUUUUCGGCGGAUGCCUUCAAA [A6C C70U] | 0.000107 ± 2.6e-06 | 1350 ± 110 |  | 3.3e-05 ± 6.9e-06 | 7.26e-05 ± 9.6e-06 | 9.39e-05 ± 7.1e-06 | 
AUAAACGCGCCAGAACUACAGAAAUGUAGUUGACGAGGAGGAGGUUUAUCGAAUUUUCGGCGGAUGCCUACAAA [A6C C70A] | 1.39e-05 ± 2.5e-06 |  |  |  |  |  | 
AUAAACGCGCCAGAACUACAGAAAUGUAGUUGACGAGGAGGAGGUUUAUCGAAUUUUCGGCGGAUGCGUCCAAA [A6C C68G] | < 1e-05 |  |  | < 1e-05 |  |  | < 1e-05
AUAAACGCGCCAGAACUACAGAAAUGUAGUUGACGAGGAGGAGGUUUAUCGAAUUUUCGGCGGAUGCUUCCAAA [A6C C68U] | 4.51e-05 ± 1.8e-06 | 534 ± 140 |  |  | 3.96e-05 ± 9.1e-06 | 4.19e-05 ± 6.8e-06 | 
AUAAAGGCGCCGGAACUACAGAAAUGUAGUUGACGAGGAGGAGGUUUAUCGAAUUUUCGGCGGAUGCCUCCAAA [A6G A12G] | 1.13e-05 ± 1.3e-06 |  |  |  |  |  | 
AUAAACGCGCCAGAACUACAGAAAUGUAGUUGACGAGGAGGAGGUUUAUCGAAUGUUCGGCGGAUGCCUCCAAA [A6C U55G] | 0.00017 ± 7.1e-06 | 8250 ± 640 |  |  | 4.01e-05 ± 9.6e-06 | 9.3e-05 ± 1.1e-05 | 
AUAAAGGCGCCAAAACUACAGAAAUGUAGUUGACGAGGAGGAGGUUUAUCGAAUUUUCGGCGGAUGCCUCCAAA [A6G G13A] | < 1e-05 |  | < 1e-05 | < 1e-05 |  |  | < 1e-05
AUAAAGGCGCCAGAACUACAGAAAUGUAGUUGACGAGGAGGAGGUUUAUCGAAUGUUCGGCGGAUGCCUCCAAA [A6G U55G] | 0.000588 ± 4.1e-05 | 2390 ± 350 |  | 0.000133 ± 3.4e-05 | 0.000299 ± 5.2e-05 | 0.000473 ± 7.8e-05 | 
